Measurements: patent publication US20200239927A1, “SENSOR FOR CYANURIC ACID DETECTION” (WISCONSIN ALUMNI RESEARCH FOUNDATION, priority 2019, published 2020)
Where a chain is given by its changes, count along the chain named.

Experiments:
DH10B E. coli cells = assay: Promoter activity: constitutive GFP reporter expression without AtzR; assay type: cell-based; conditions: for transcriptional activity compared with WT promoter, measured by reporter expression: E. coli, promoter only, no AtzR; for GFP reporter expression of cells carrying only the promoter: no AtzR present, rich and minimal media
Procedure: Fluorescence measurement: To measure promoter activities, transformed reporter plasmids (including WT promoter plasmid) were transformed into DH10B cells (NEB) using electroporation and plated cells on LB agar plates with kanamycin (50 ug/mL). After overnight growth at 37° C., at least 3 individual colonies were selected for each reporter plasmid and inoculated into 150 μL LB medium with 50 μg/mL kanamycin in a 96-well plate. After 3 hours of growth at 37° C. in a multi-plate shaker (1100 rpm, Southwest Science), cells were diluted 1:50 into 150 μL LB medium or MOPS medium (supplemented with 0.4% glucose and 1× BME vitamin) with 50 μg/mL kanamycin in a 96-well plate. Cells were grown at 37° C. with shaking (1100 rpm). After 16 hours, OD600 and fluorescence (excitation at 488 nm and emission at 520 nm with a gain of 40) of each well was measured using a multi-well plate reader (Synergy HTX, BioTek .Inc). Fluorescence was normalized against OD600. Blank (normalized fluorescence of cells carrying no GFP) was subtracted from those measurements. Mean and standard deviation of each reporter plasmid activity were calculated from measurements of 3 biological replicates.

AtzR [1] = assay: Fold induction of GFP reporter by cyanuric acid with co-expressed AtzR; assay type: cell-based; conditions: for increase in reporter expression in response to cyanuric acid: E. coli, medium not stated; for response to cyanuric acid (inducibility) / fold activation (ratio of GFP with and without cyanuric acid): 200 μM cyanuric acid; for response to cyanuric acid (inducibility) / uninduced baseline (no cyanuric acid): AtzR co-expressed
Sequence of AtzR (as listed by the source): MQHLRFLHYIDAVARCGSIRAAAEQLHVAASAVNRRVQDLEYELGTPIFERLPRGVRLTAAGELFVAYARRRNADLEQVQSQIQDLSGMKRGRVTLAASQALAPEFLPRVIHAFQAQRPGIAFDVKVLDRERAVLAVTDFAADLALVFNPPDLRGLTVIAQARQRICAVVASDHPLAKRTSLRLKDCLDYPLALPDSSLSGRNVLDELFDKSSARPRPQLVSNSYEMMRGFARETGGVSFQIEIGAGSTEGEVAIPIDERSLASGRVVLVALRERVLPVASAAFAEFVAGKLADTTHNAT
Procedure: (§1) To measure fold repression, each reporter plasmid was co-transformed with low and high copy sensor plasmid separately. The end results include two test versions for each reporter plasmid: (the reporter plasmid, low copy sensor plasmid), (the reporter, high copy sensor plasmid), reporter plasmids were transformed with either of the sensor plasmids. Similar to the process of measuring promoter activity, the activities of at least 3 biological replicates were measured for each reporter and sensor plasmid pair. The only difference was that 50 μg/mL kanamycin and […] Spectinomycin were used to maintain both of the reporter and sensor plasmids. The fold repression was calculated as a ratio of the fluorescence of reporter divided by the fluorescence of this reporter when it was paired with a sensor plasmid. To measure fold induction, the process of obtaining fold repression was followed. The only difference was the addition of 200 μM cyanuric acid during the growth. The fold induction was calculated as a ratio of the fluorescence of the induced state divided by the fluorescence of the repressed state.

AtzR [2] = assay: Fold repression of GFP reporter by co-expressed AtzR; assay type: cell-based; conditions: minimal medium
Procedure: as §1

AtzR [3] = assay: Cyanuric acid dose response and visual detection limit of the AtzR biosensor; assay type: cell-based, E. coli DH10B; conditions: for cyanuric acid concentration at which signal begins to saturate: rich and minimal media (125 ppm)
Procedure: To obtain transfer functions of various reporter and sensor plasmid pairs, different concentrations of cyanuric acid were delivered via DMSO to cultures (less than 1% of the total volume). After growth for 16 hours, fluorescence was measured and normalized similar to previous experiments.
Visual detection limit: To determine the visual detection limit in LB and MOPS media, E. coli DH10B with or without constitutive GFP expression was grown in LB with appropriate antibiotics for 16 hours in […] on a shaker(1100 rpm). Two 2 mL aliquots from each culture were spun down at 5000 G for 5 minutes in a benchtop centrifuge at room temperature. The media was aspirated out and the cell pellets resuspended in either 2 mL LB or 2 mL MOPS media. The spin-down and resuspension procedure was repeated two more times. Then, cells without GFP in LB (or MOPS) were mixed with cells carrying GFP in LB (or MOPS) to 150 μL with various ratios (cells without GFP-cells with GFP: 100%-0%, 95%-5%, 90%-10%, 85%-15%, 70%-30%, 55%-45%, 30%-70%, 0%-100%). After measuring the fluorescence and OD600 of the mixed cultures in a 96-well plate, the cultures were transferred to ultra-thin strip tubes ordered by increasing percentage of cells carrying GFP. Five individuals were asked to identify the culture that they could be confident to tell apart (in terms of the color of the culture) from the culture containing no cells with GFP (100%-0%). The identification process for cultures in LB and MOPS was performed by placing culture tubes in front a piece of white paper. The weighted average of fluorescence of cultures was identified by five individuals for cultures in LB and MOPS. The calculated weights averages were defined and used as the visual detection limits in FIGS. 7-10 related experiments.

Promoter 13: group 2 promoter variant; apFAB spacer replaced with RBS in R-L orientation (DNA TTGACAGGTGCCGATCCGGCACCTATAATAGATTCATGATGA; expressed or natural sequence)
transcriptional activity compared with WT promoter, measured by reporter expression (DH10B E. coli cells): transcriptionally more active than WT promoter
increase in reporter expression in response to cyanuric acid (AtzR [1]): greater than two-fold increase

Promoter 12: group 2 promoter variant, sequence SEQ ID NO: 14 (DNA GGTGCCGACACGGCACCTTTTTGTACCTATAATAGATTCATGATGA; expressed or natural sequence)
transcriptional activity compared with WT promoter, measured by reporter expression (DH10B E. coli cells): transcriptionally more active than WT promoter

Promoter 16: group 2 promoter variant, sequence SEQ ID NO: 18 (DNA GGTGCCGATCCGGCACCTTTTTGTACCTATAATAGATTCATGATGA; expressed or natural sequence)
transcriptional activity compared with WT promoter, measured by reporter expression (DH10B E. coli cells): transcriptionally more active than WT promoter

Promoter 10: group 2 promoter variant; apFAB spacer replaced with RBS L and R (DNA TTGACAGGTGCCGGATCGGCACCTATAATAGATTCATGATGA; expressed or natural sequence)
transcriptional activity compared with WT promoter, measured by reporter expression (DH10B E. coli cells): transcriptionally more active than WT promoter
fold repression (ratio of GFP expression without and with AtzR) (AtzR [2]): 50 fold
response to cyanuric acid (inducibility) (AtzR [1]): lack of cyanuric acid response
increase in reporter expression in response to cyanuric acid (AtzR [1]): greater than two-fold increase

Promoter 15: group 2 promoter variant; RBS placed upstream of -35 (DNA GGTGCCGATCCGGCACCTTGACATCGCATCTTTTTGTACCTATAATAGATTCATGATGA; expressed or natural sequence)
transcriptional activity compared with WT promoter, measured by reporter expression (DH10B E. coli cells): transcriptionally more active than WT promoter
lower threshold of detection of cyanuric acid (AtzR [3]; minimal media): ~15 µM
cyanuric acid concentration at which signal begins to saturate (AtzR [3]): 1 mM
lower threshold of detection of cyanuric acid (AtzR [3]; rich media): ~25 µM

B1: Promoter 7: group 1 promoter variant of presumed intermediate strength, -35 site mutated toward E. coli consensus (nucleic acid)
DNA: TCGGTGCCGGATCGGCACCAGTTAGGTCGGAAAAAGGCGGCAGACAAGTGCGCTTTTTGTACCTATATAGATTCATGATGA
modifications: expressed or natural sequence
transcriptional activity compared with WT promoter, measured by reporter expression (DH10B E. coli cells): transcriptionally more active than WT promoter
GFP reporter expression of cells carrying only the promoter (DH10B E. coli cells): highest expression

B2: Promoter 8: group 1 promoter variant of presumed intermediate strength, -35 site mutated toward E. coli consensus (nucleic acid)
DNA: B1 DNA with T68A
modifications: expressed or natural sequence
transcriptional activity compared with WT promoter, measured by reporter expression (DH10B E. coli cells): transcriptionally more active than WT promoter
GFP reporter expression of cells carrying only the promoter (DH10B E. coli cells): highest expression
increase in reporter expression in response to cyanuric acid (AtzR [1]): greater than two-fold increase

B3: Promoter 4: group 1 promoter variant weakened by deleting a single base from the -10 site (nucleic acid)
DNA: B1 DNA with A44T, T68A
modifications: expressed or natural sequence
response to cyanuric acid (inducibility) (AtzR [1]): only promoter variant 2 was inducible

B4: Promoter 3: group 1 promoter variant weakened by deleting a single base from the -10 site (nucleic acid)
DNA: B1 DNA with A44T
modifications: expressed or natural sequence
response to cyanuric acid (inducibility) (AtzR [1]): only promoter variant 2 was inducible

B5: Promoter 11: group 2 promoter variant; RBS placed upstream of -35 (nucleic acid)
DNA: CAAGATCGGTGCCGGATCGGCACCAGTTAGGTCTTGACATCGCATCTTTTTGTACCTATAATAGATTCATGATGA
modifications: expressed or natural sequence
transcriptional activity compared with WT promoter, measured by reporter expression (DH10B E. coli cells): transcriptionally more active than WT promoter

B6: Promoter 2: group 1 promoter variant; sequence 3' of ABS 3 replaced with corresponding region of apFab71 (nucleic acid)
DNA: TCGGTGCCGGATCGGCACCAGTTAGGTCGGAAAAAGGCGGCAGTCAAGTGCGCTTTTTGTACCTATAATAGATTCATGATGA
modifications: expressed or natural sequence
transcriptional activity compared with WT promoter, measured by reporter expression (DH10B E. coli cells): transcriptionally more active than WT promoter
response to cyanuric acid (inducibility) (AtzR [1]): inducible
fold activation (ratio of GFP with and without cyanuric acid) (AtzR [1]; medium not specified): approximately 10 fold
fold activation (ratio of GFP with and without cyanuric acid) (AtzR [1]; minimal media): 15 fold
increase in reporter expression in response to cyanuric acid (AtzR [1]): greater than two-fold increase
uninduced baseline (no cyanuric acid) (AtzR [1]): about 4000 fluorescence units
lower threshold of detection of cyanuric acid (AtzR [3]; minimal media): ~15 µM
cyanuric acid concentration at which signal begins to saturate (AtzR [3]): 1 mM
lower threshold of detection of cyanuric acid (AtzR [3]; rich media): ~25 µM

B7: Promoter 5: group 1 promoter variant with consensus E. coli -35 and apFab71 3' sequence, on a high-copy number plasmid (nucleic acid)
DNA: B6 DNA with T44A
transcriptional activity compared with WT promoter, measured by reporter expression (DH10B E. coli cells): transcriptionally more active than WT promoter
fold activation (ratio of GFP with and without cyanuric acid) (AtzR [1]; medium not specified): approximately 10 fold
increase in reporter expression in response to cyanuric acid (AtzR [1]): greater than two-fold increase
uninduced baseline (no cyanuric acid) (AtzR [1]): 22000 fluorescence units

B8: Promoter 6: group 1 promoter variant with consensus E. coli -35 and apFab71 3' sequence, on a low-copy number plasmid (nucleic acid)
DNA: B6 DNA with T44A
transcriptional activity compared with WT promoter, measured by reporter expression (DH10B E. coli cells): transcriptionally more active than WT promoter
fold repression (ratio of GFP expression without and with AtzR) (AtzR [2]): 10 fold
fold activation (ratio of GFP with and without cyanuric acid) (AtzR [1]; medium not specified): approximately 10 fold
increase in reporter expression in response to cyanuric acid (AtzR [1]): greater than two-fold increase

B9: Promoter 14: group 2 promoter variant, sequence SEQ ID NO: 16 (nucleic acid)
DNA: GACCTAACTGGTGCCGATCCGGCACCGATCTTGTTGACATCGCATCTTTTTGTACCTATAATAGATTCATGATGA
modifications: expressed or natural sequence
transcriptional activity compared with WT promoter, measured by reporter expression (DH10B E. coli cells): transcriptionally more active than WT promoter

B10: Promoter 1: group 1 promoter variant; Pseudomonas -10 site replaced with consensus E. coli -10 site (nucleic acid)
DNA: ATGCGAGTCAAAGCAAGATCGGTGCCGGATCGGCACCAGTTAGGTCGGAAAAAGGCGGCAGTCAAGTGCGCAGGGCGGCGTTATAATTGAACGAA
modifications: expressed or natural sequence
notes: group 1 promoter variant; Pseudomonas -10 site replaced with consensus E. coli -10 site
transcriptional activity compared with WT promoter, measured by reporter expression (DH10B E. coli cells): transcriptionally more active than WT promoter
lower threshold of detection of cyanuric acid (AtzR [3]; minimal media): ~15 µM
cyanuric acid concentration at which signal begins to saturate (AtzR [3]): 1 mM
lower threshold of detection of cyanuric acid (AtzR [3]; rich media): ~25 µM
